# Results published in patent US20260191954A1, “COMPOSITIONS AND METHODS FOR NEOADJUVANT TREATMENT IN CANCER” (INNATE PHARMA, priority 2022, published 2026).
# “And” between values parts separate entries of the source, which are not always exact repeats. Identical values can stand only once.
# T1: free membrane CD39 (mCD39) on monocytes (Homo sapiens, UniProt P49961)
# T1 construct: endogenous in cells; host or cells: monocytes and B cells in patients' blood
# T1 sequence (P49961 1-510): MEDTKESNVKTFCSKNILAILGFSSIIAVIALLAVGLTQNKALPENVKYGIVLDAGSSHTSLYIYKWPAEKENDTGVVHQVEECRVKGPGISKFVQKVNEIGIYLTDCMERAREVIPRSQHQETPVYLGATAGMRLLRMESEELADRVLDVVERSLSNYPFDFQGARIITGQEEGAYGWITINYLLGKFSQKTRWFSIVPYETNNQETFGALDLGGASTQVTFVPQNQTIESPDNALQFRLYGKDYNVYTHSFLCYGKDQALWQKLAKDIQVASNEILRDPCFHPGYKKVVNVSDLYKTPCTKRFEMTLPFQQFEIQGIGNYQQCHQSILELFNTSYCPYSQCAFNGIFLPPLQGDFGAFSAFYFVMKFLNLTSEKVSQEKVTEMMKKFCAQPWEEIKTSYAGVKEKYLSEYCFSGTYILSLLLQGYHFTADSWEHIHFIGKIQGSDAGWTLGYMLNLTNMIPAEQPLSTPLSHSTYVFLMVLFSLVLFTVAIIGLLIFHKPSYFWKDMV
# B1: IPH5201: humanized anti-CD39 antibody having the respective heavy and light chain amino acid sequences of SEQ ID NOS: 10 and 11 (antibody)
# heavy: QVQLVQSGAEVKKPGASVKVSCKASGYTFTDYNMHWVRQAPGQRLEWIGYIVPLNGGSTFNQKFKGRATITVDTSARTAYMELSSLRSEDTAVYYCARGGTRFAYWGQGTLVTVSSASTKGPSVFPLAPSSKSTSGGTAALGCLVKDYFPEPVTVSWNSGALTSGVHTFPAVLQSSGLYSLSSVVTVPSSSLGTQTYICNVNHKPSNTKVDKRVEPKSCDKTHTCPPCPAPEAEGAPSVFLFPPKPKDTLMISRTPEVTCVVVDVSHEDPEVKFNWYVDGVEVHNAKTKPREEQYNSTYRVVSVLTVLHQDWLNGKEYKCKVSNKALPSSIEKTISKAKGQPREPQVYTLPPSREEMTKNQVSLTCLVKGFYPSDIAVEWESNGQPENNYKTTPPVLDSDGSFFLYSKLTVDKSRWQQGNVFSCSVMHEALHNHYTQKSLSLSPGK
# light: DIVMTQSPDSLAVSLGERATINCRASESVDNFGVSFMYWFQQKPGQPPKLLIYGASNQGSGVPDRFSGSGSGTDFTLTISSLQAEDVAVYYCQQTKEVPYTFGGGTKVEIKRTVAAPSVFIFPPSDEQLKSGTASVVCLLNNFYPREAKVQWKVDNALQSGNSQESVTEQDSKDSTYSLSSTLTLSKADYEKHKVYACEVTHQGLSSPVTKSFNRGEC
# Legend:
# [1] = molecular target: T1, free membrane CD39 (mCD39) on monocytes; test: Indirect response PD model: IPH5201 concentration vs free mCD39 on monocytes, phase 1 patients; format: in vivo
# From the text: (§1) PK/PD modelling and simulation were used to guide selection of doses. IPH5201 PK data from 45 patients and PD data of free membrane CD39 (mCD39) occupancy on monocytes from 43 patients were available.
# An indirect response PD model (inhibition on Kin) was then built to describe the relationship between IPH5201 concentrations and free mCD39 on monocytes (FIG. 10). The model accurately predicted CD39free+ of monocytes (%). […] The final indirect response model was then used for parametric simulation.
# [2] = Pharmacokinetics of IPH5201 in phase 1 patients; format: in vivo, human
# Method: (§2) A first-in-human, multicentre, non-randomised, open-label, phase 1 study was conducted in order to assess the safety, efficacy, pharmacokinetics (PK) and pharmacodynamics (PD) of IPH5201±durvalumab (Imfinzi™) in patients with advanced solid tumours. The study consisted of two consecutive dose-escalation parts: • Part 1: Ascending doses of IPH5201 (100, 300, 1000 and 3000 mg) every 3 weeks (Q3W). • Part 2: Ascending doses of IPH5201 (300, 1000 and 3000 mg) and 1500 mg durvalumab Q3W.
# as §1
# On the left hand panel, curves from bottom to top represent 100 mg, 300 mg, 1000 mg and 3000 mg doses of IPH5201; on the right hand panel curves from bottom to top represent 300 mg, 1000 mg (up to the 21 day time point) and 3000 mg doses of IPH5201. The PK of IPH5201 was non-linear at ≤300 mg and linear at ≥1000 mg. Free soluble CD39 was above the lower limit of quantitation at cycle 1, day 2 or later in 6/40 patients (n=2, 100 mg; n=1, 1000 mg; n=3, 3000 mg).
# [3] = Phase 1 study of IPH5201 +/- durvalumab in advanced solid tumours: safety; format: in vivo
# Method: as §2
# PD cohorts enrolled patients with advanced squamous cell lung carcinoma or advanced pancreatic ductal adenocarcinoma in the top two dose levels of Parts 1 and 2. Primary endpoints were safety and tolerability. Key secondary endpoints included preliminary antitumour activity measured by objective response and disease control per RECIST v1.1, PK and immunogenicity. Exploratory endpoints included efficacy measured by duration of response and progression-free survival (PFS) per RECIST v1.1, overall survival and assessment of biomarkers.
# Key inclusion criteria were: • Adults aged ≥18 years. • Histologically or cytologically confirmed advanced solid tumours. • At least one measurable lesion per RECIST v1.1. • Refractoriness to standard therapy or disease for which no standard therapy exists. • Eastern Cooperative Oncology Group Performance Status of 0 or 1. • Archival or fresh tumour sample. • Key exclusion criteria were: • Previous treatment with any agents targeting CD73, CD39, or adenosine receptors. • Treatment with any conventional or investigational anticancer therapy within 21 days of the first planned dose. • Active or prior autoimmune or inflammatory disorders within the past 5 years. • Cardiac and vascular criteria including presence of acute coronary syndrome or thromboembolic events within 6 months prior to enrolment, congestive heart failure, serious cardiac arrhythmia requiring medication, or uncontrolled hypertension. • Untreated metastases to the central nervous system.
# Overall, 57 patients received treatment (IPH5201, n=38; IPH5201+durvalumab, n=19). […] Treatment-emergent adverse events (TEAEs) occurred in 96.5% of patients; 40.4% had grade ≥3 TEAEs. […] Treatment-related adverse events (TRAEs) occurred in 66.7% of patients (37/57 (64.9%) related to IPH5201; 11/19 (57.9%) related to durvalumab). […] The most common TRAEs were infusion-related reactions (21.1%), fatigue (17.5%), nausea, arthralgia, tumour pain and pruritus (8.8% each). […] Maximum tolerated dose (MTD) was not reached.
# [4] = serum IPH5201, fixed doses Q3W, mono or with durvalumab, FIG. 12
molecule,measurement,setting,value
B1,Production rate constant,"[1]; indirect response PD model (inhibition on Kin), model parameter",20.5 h⁻¹
same,Maximum inhibition (IMAX) of CD39free+,"[1]; indirect response PD model, monocytes",0.926 and 0.92
same,population PK model best describing IPH5201 PK,[2]; PK data from 45 patients,2-compartment model with parallel linear and saturatable kinetics
same,dose range in which PK was linear,[2]; [4],≥ 1000 mg
same,dose range in which PK was non-linear,[2]; [4],≤ 300 mg
same,deaths due to treatment,[3]; all 57 treated patients,no deaths due to treatment
same,Maximum tolerated dose (MTD),[3]; doses up to 3000 mg Q3W,not reached
same,DLTs during dose escalation,[3]; in vivo,No DLTs were observed
same,TEAE: anaemia,[3]; in vivo,19.3%
same,TEAE: decreased appetite,[3]; in vivo,26.3%
same,TEAE: fatigue,[3]; in vivo,28.1%
same,TEAE: infusion-related reactions,[3]; in vivo,21.1%
same,TEAE: tumour pain,[3]; in vivo,19.3%
same,TRAE: arthralgia,[3]; in vivo,8.8%
same,TRAE: fatigue,[3]; in vivo,17.5%
same,TRAE: infusion-related reactions,[3]; in vivo,21.1%
same,TRAE: nausea,[3]; in vivo,8.8%
same,TRAE: pruritus,[3]; in vivo,8.8%
same,TRAE: tumour pain,[3]; in vivo,8.8%
same,correlation of dose with incidence of TEAEs of at least grade 3,[3]; in vivo,No significant correlation
same,grade 4 TRAEs,[3]; in vivo,no grade 4 TRAEs
same,patients with TRAEs related to IPH5201,[3]; in vivo,64.9%
same,"patients with TRAEs related to IPH5201, count",[3]; in vivo,37/57
same,patients with grade 3 TRAEs,[3]; in vivo,10.5%
same,patients with grade ≥3 TEAEs,[3]; in vivo,40.4%
same,patients with treatment-emergent adverse events (TEAEs),[3]; in vivo,96.5%
same,patients with treatment-related adverse events (TRAEs),[3]; in vivo,66.7%
